Assay results: publication PMC10627512

Molecular target: HipB of the E. coli O127:H6 HipBST toxin-antitoxin system (E. coli O127:H6) (UniProt P23873)
Test: crystal structure

Substance “HipB of the E. coli O127:H6 HipBST toxin-antitoxin system (from UniProt P23873 1-88) (natural protein)” has a stoichiometry N of 2.
